Laboratory results from US20100331255A1 (WAKE FOREST UNIVERSITY HEALTH SCIENCES, published 2010).

Biological target: T1, Rat PDI (protein disulfide isomerase) in extracted rat liver microsomal membranes (rat, UniProt P04785 20-509)
T1 construct: Endogenous protein solubilised from extracted rat liver microsomal membranes; also called 55 kDa PDI protein
T1 sequence (looked up): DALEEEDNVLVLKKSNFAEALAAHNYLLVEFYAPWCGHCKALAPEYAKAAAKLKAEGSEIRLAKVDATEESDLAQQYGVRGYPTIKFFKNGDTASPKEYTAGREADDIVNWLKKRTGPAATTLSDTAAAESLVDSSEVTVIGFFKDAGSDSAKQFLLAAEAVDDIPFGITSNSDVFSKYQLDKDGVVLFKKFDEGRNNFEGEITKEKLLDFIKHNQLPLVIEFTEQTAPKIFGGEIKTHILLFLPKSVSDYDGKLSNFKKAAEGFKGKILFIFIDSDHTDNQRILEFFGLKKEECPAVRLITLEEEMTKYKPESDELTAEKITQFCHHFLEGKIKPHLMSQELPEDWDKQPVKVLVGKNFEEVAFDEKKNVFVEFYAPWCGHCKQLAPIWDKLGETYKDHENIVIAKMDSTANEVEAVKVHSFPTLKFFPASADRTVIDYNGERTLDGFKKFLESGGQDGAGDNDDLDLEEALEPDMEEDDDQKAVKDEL
Assay: immunoprecipitation with rat VKORC1 antibodies from solubilised rat liver microsomal membranes, Western blot with PDI monoclonal antibody
Text: Lane St. has standard proteins. […] Lanes D and E show Western blots of extracted human and rat liver microsomes respectively with peptide antibodies raised against an epitope on human VKORC1 (see Experimental Procedures). […] The sequence of precipitating and first antibody is shown. Rat PDI and the heavy (HIgG) and light (LIgG) chains of mouse IgG are visible. Panel II, lanes G.Ox. and G.Red show immunoprecipitates obtained with rat VKORC1 antibodies and their Western blots developed with the mouse PDI monoclonal antibody as the first antibody and horse radish conjugated goat anti-mouse IgG as the second antibody. The sequence of precipitating and first antibody is shown. Preparation of the samples before SDS-PAGE in 8-12% CRITERION gels is described in detail in Experimental Procedures. The samples in G.Ox and G.Red were not reduced and reduced with ME respectively prior to electrophoresis.
Extracted microsomal membranes were resuspended in buffer D (250 mM sodium phosphate, 0.5 M KCl, 20% glycerol, 0.75% CHAPS, pH 7.85 containing 10 μg/ml of the Sigma Protease Inhibitor Cocktail for use with mammalian cell and tissue extracts) using a Dounce homogenizer. For blocking of free thiol groups, 20 mg NEM was added per ml of buffer D before homogenizing. The protein concentration was 6.8 mg/ml. […]

binding result: binds
B1: Rat VKORC1 in extracted rat liver microsomal membranes (enzyme, UniProt Q6TEK4 1-161, looked up)
chain: MGTTWRSPGRLRLALCLAGLALSLYALHVKAARARNEDYRALCDVGTAISCSRVFSSRWGRGFGLVEHVLGADSILNQSNSIFGCMFYTIQLLLGCLRGRWASILLILSSLVSVAGSLYLAWILFFVLYDFCIVCITTYAINAGLMLLSFQKVPEHKVKKP
notes: Endogenous protein
